According to patent publication US20250361297A1, “ANTI- SIGLEC-15 BINDING MOLECULES AND METHODS OF USE” (ADAPTAM THERAPEUTICS, S.L., priority 2024, published 2025):

Columns and labels:
human Siglec-15 [1] = biological target: T1, human Siglec-15 (Homo sapiens, UniProt Q6ZMC9); experiment: Blocking of human Siglec-15 binding to Jurkat cells (flow cytometry); conditions: flow cytometry (FIG. 22)
T1 construct: expressed in transfected cells
T1 sequence (Q6ZMC9 20-328): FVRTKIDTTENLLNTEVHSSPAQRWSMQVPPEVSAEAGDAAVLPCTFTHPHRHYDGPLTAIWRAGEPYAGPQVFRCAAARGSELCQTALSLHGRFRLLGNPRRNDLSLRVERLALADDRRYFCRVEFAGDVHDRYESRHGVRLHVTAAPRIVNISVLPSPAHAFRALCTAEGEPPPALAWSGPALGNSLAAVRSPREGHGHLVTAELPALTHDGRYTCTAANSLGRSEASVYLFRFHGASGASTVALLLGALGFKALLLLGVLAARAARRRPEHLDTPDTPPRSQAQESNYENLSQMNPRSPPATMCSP
Procedure: Blocking assay (Flow cytometry): Briefly, the anti-Siglec-15 antibodies of the disclosure or controls were diluted with human Siglec-15-human Fc protein (Sinobiologicals, 13976-H02H1), at 66.67 nM, and incubated at room temperature for 40 minutes. Then, Jurkat T cells were harvested from cell culture flasks, washed twice, and re-suspended in PBS containing 2% v/v Bovine serum albumin (FACS buffer). Then, 0.5×10^5 cells per well in 96 well-plates were incubated in 100 μL of the antibody/Siglec-15-human Fc mixtures for 40 minutes at 4° C. The plates were washed twice with FACS buffer, and then added and incubated for 40 minutes at 4° C. in dark with 100 μl/well Goat Anti-human IgG (H+L) (1:200 dilution in FACS buffer, Thermofisher). Cells were washed twice and re-suspended in FACS buffer. Fluorescence was measured in a flow cytometer. Data was analyzed using Flowjo and Graphpad Prism software.

osteoclast activation = experiment: Osteoclast activation in vitro (CTX-I in culture medium); type: cell-based; conditions: relative to baseline; control odanacatib 1 μM (FIG. 47)
[2] = biological target: T2, Siglec-15 on human macrophages (Homo sapiens, UniProt Q6ZMC9); experiment: Flow cytometry binding to Siglec-15 positive human macrophages; conditions: compared to clone 5G12 (FIG. 3)
T2 construct: endogenous in cells; host or cells: human monocyte-derived macrophages from donor PBMCs
T2 sequence (Q6ZMC9 20-328): T1 sequence (Q6ZMC9 20-328)
Procedure: Post-polarization, the macrophages were harvested, washed using Flow Cytometry Staining Buffer (00-4222-26, Thermo Fisher Scientific), and subsequently incubated with fluorochrome-conjugated antibodies against Siglec-15, PD-L1, CD206, and CD163. This step was performed for 30 minutes at 4° C. in a dark environment to prevent photobleaching of the fluorochromes and to maintain the integrity of the antibodies.
Following incubation, the cells underwent a second washing step and then resuspended in 200 μL of Flow Cytometry Staining Buffer containing DAPI (1:10,000) (D1306, Invitrogen). DAPI is a nuclear stain that facilitates the identification of viable cells and enables the exclusion of dead cells or debris during analysis. The stained cells were analyzed using a FACSymphony flow cytometer (BD Biosciences). The flow cytometry data were then processed and analyzed using FlowJo software (BD Biosciences).

human Siglec-15 [3] = biological target: T1, human Siglec-15; experiment: Competitive flow cytometry assay with benchmark antibodies; type: binding
Procedure: Epitope mapping assay by Flow cytometry: Competition with benchmark mouse IgG antibodies: 50,000 cells/well of THP-1 S15 OE were added to a round bottom 96 well plate, and centrifuged at 450×G for 5 minutes, and the supernatant was discarded. Human anti-siglec-15 IgG antibodies (starting at 198 nM, 3-fold serial dilution in staining buffer) were added to 100 μl of staining buffer and cells were resuspended with it and incubated for 40 minutes on ice. 100 μl of staining buffer were added to wells, centrifuged at 450× G for 5 minutes and the supernatants discarded. Benchmark mouse IgG antibodies were diluted at 33.3 nM and cells resuspended in 100 μl of the mix and incubated for 40 minutes on ice. Then, 100 μl of staining buffer were added to wells, centrifuged at 450×G for 5 minutes and the supernatants discarded. The secondary antibody anti-mouse IgG-Alexa647 was prepared at 1:200 dilution in 100 μl of staining buffer and added to each well, and cells were incubated for 40 minutes on ice. Cells were washed with 100 μl of staining buffer and centrifuged at 450×G for 5 minutes to discard the supernatant. Cells were resuspended in 150 μl of staining buffer and acquired in a flow cytometer.

Siglec-15 positive cells = experiment: Internalization assay (Zenon pHrodo iFL Green); type: cell-based
Procedure: Internalization assay (Zhenon pHrodo): Sufficient volumes of 4× working solution of anti-Siglec-15 antibodies (10 nM) were prepared in cell culture medium for a total of 25 μL for each well of a 96-well plate. A working solution of Zenon™ pHrodo™ iFL IgG Labeling Reagent was prepared at 30 nM and 25 μL were added to each well. The mix was incubated for 5 minutes at room temperature to allow the labeling complexes to form. 5 mL of suspension cells at 2×10^6 cells/mL in cell culture medium were prepared and 50 μL of cells were added to each well of the 96-well plate containing the mix of anti-Siglec-15 antibody and the Zenon™ labeling reagent. Cells were incubated with the labeling complex for different timepoints (1-24 hours) under standard cell culture conditions. Fluorescence was analyzed by flow cytometry.

blocking of binding of human Siglec-15 to Jurkat cells (human Siglec-15 [1]): approximately 60% | binding to Siglec-15 on human macrophages [2]: superior binding | inhibition of binding of 5G12 (benchmark 1) (human Siglec-15 [3]; competitive flow cytometry (FIG. 18A)): outperformed A2A5C7E8 | inhibition of binding of A2A5C7E8 (benchmark 2) (human Siglec-15 [3]; competitive flow cytometry (FIG. 18B)): outperformed 5G12
B1: S15B1: parental mouse anti-Siglec-15 monoclonal antibody from hybridoma; VH SEQ ID NO: 18, VL SEQ ID NO: 19 (antibody, V domains shown)
VH: QVQLQQSGPELVKPGASVKISCKASGYAFSSSWMNWVKQRPGKGLEWIGRIYPGHGETNYNGKFKDKATVTADKSSSTTYMQLSSLTSEDSAVYFCARVDNSDPYYFDYWGQGTTLTVSS
VL: DIVLTQSPASLAVSLGQRATISCRASKSVSTSGYSYMHWYQQKPGQPPKLLIYLASNLESGVPARFSGSGSGTDFTLNIHPVEEEDAATYYCQHGRELPFTFGSGTKLEIK
modifications: Clone S15B1 VH; Clone S15B1 VL
effect on osteoclast activation (CTX-I) (osteoclast activation): did not significantly affect | percentage of cells that internalized the antibody (Siglec-15 positive cells; Zenon pHrodo iFL Green label, 24 hours at 37° C.): 100% | internalization, fold increase over isotype control (Siglec-15 positive cells; kinetics over 1, 2, 4, 16, and 24 hours): approximately 6 fold
